assay: yeast display, Sf9 membrane polyspecificity reagent, FACS + sequencing; frameworks hold sequencing errors
Summary of the method: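 In a synthetic yeast display library (Saccharomyces cerevisiae BJ5465), nanobody expression was induced with galactose for 36–48 hours. FACS gates were set low and high (top ~1%) using anti-HA fluorescence for expression and streptavidin fluorescence for binding of the Sf9 membrane reagent. Each polyreactivity label is drawn from the gate of origin.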

**Q.** For “QVQLVESGGGLVQAGGSLRLSCAASGFILTSYAMGWYRKAPGKERELVAAISSRGGRTYYADSVKGRFTISRDNEKNTVYLQMNSLKPEDTAVYYCNAGVYVVGDFDYWGLGTQVTVSS”, which “polyreactivity (PSR sort gate)” value is on record?
**A.** The value was “high polyreactivity”.

**Q.** For “QVQLVESGGGLVQAGGSLRLSCAASGFILYFKAMGWYRQAHGKERELVAAITSDGGSTYYADSLKGRFTISRDNAKNTVYLQMNSLKPEDTAVYYCAADASTWYTEEYWGQGTQVTVSS”, which “polyreactivity (PSR sort gate)” value is on record?
**A.** Its value is “low polyreactivity”.

**Q.** Which “polyreactivity (PSR sort gate)” value does the source give for “QVQLVESGGGLVQAGGSLRLSCAASGFISDVYAMGWYRQAPGKERELVAVITWRGSTYYADSVKGRFTISRDNAKNTVYLQMNSLKPEDTAVYYCAAESQGDWAFDYWGQGTQVTVSS” here?
**A.** Its value is “low polyreactivity”.

**Q.** Which “polyreactivity (PSR sort gate)” value does the source give for “QVQLVESGGGLVQAGGSLRLSCAASGFISGKYAMGWYRQAPGKERELVASIRSGGSTNYADSVKGRFTISRDNAKNTVYLQMNSLKPEDTAVYYCAKLRGSRGVIYDYWGQGTQVTVSS” here?
**A.** The value was “high polyreactivity”.

**Q.** Which “polyreactivity (PSR sort gate)” value does the source give for “QVQLVESGGGLVQAGGSLRLSCAASGFISGVNTMGWYSQAPGKERELVAAISSGGRTHYADSVKGRFTISRDNAKNTVYLQMNSLKPEDTAVYYCATRVRSTTRYYYWGLGTQVTVSS” here?
**A.** Its value is “high polyreactivity”.

**Q.** Which “polyreactivity (PSR sort gate)” value does the source give for “QVQLVESGGGLVQAGGSLRLSCAASGFISRAYAMGWYRQAPGKERELVAAISVRVGSTYYADSVKGRFTISRDNAKNTVYLQMNSLKPEDTAVYYCAALRPWPRYDYWGQGTQVTVSS” here?
**A.** The value was “high polyreactivity”.

**Q.** With “QVQLVESGGGLVQAGGSLRLSCAASGFISRYYGMGWYRQAPGKERELVAAISWSGGRTHYADSVKGRFTISRDNAKNTVYLQMNSLKPEDTAVYYCATDRYYRPGGEYDYWGQGTQVTVSS” as the sequence, how does the “polyreactivity (PSR sort gate)” value read?
**A.** Its value is “high polyreactivity”.

**Q.** With “QVQLVESGGGLVQAGGSLRLSCAASGFISSHYAMGWYRPAPGKEWEVVATISSGGSTYADSVKGRFTISRDNAKNTVYLQMNSLKPEDTAVYYCAKRYYKSLNRDEFDSWGQGTQVTVSS” as the sequence, how does the “polyreactivity (PSR sort gate)” value read?
**A.** The value was “high polyreactivity”.

**Q.** For “QVQLVESGGGLVQAGGSLRLSCAASGFISVRNAMGWYRQAPGKEREFVAAISGGGGSTYYADSVKGRFTISRDNAKNTVYLQMNSLKPEDTAVYYCNAPRYLYSAGRFNYWGQGTQVTVSS”, which “polyreactivity (PSR sort gate)” value is on record?
**A.** The value was “high polyreactivity”.

**Q.** For “QVQLVESGGGLVQAGGSLRLSCAASGFISYYYAMGWYRQAPGKERELVAAITKSGGSTYYADSVKGRFTIARDNAKNTVSLQMNSLKPEDTAVYYCAAVRSTRNSTSRLYGYWGQGTQVTVSS”, which “polyreactivity (PSR sort gate)” value is on record?
**A.** The value was “low polyreactivity”.

**Q.** For “QVQLVESGGGLVQAGGSLRLSCAASGFIVDTYAMGWYRQAPGKERELVAVISSSGGRTYYADSVKGRFTISRDNAKNTVYFQMNSLKPEDTAVYYCAARWYSGYGRFDYWGQGTQVTVSS”, which “polyreactivity (PSR sort gate)” value is on record?
**A.** Its value is “high polyreactivity”.

**Q.** Which “polyreactivity (PSR sort gate)” value does the source give for “QVQLVESGGGLVQAGGSLRLSCAASGFIVSTKVMGWYRQAPGKERELVADINTGGSTSYADSVKGRFTNSRDNAKNTVYLQMNSLKPEDTAVYSCAAVLQYYYLSTDDPYDYWGQGTQVTVSS” here?
**A.** Its value is “low polyreactivity”.

**Q.** For “QVQLVESGGGLVQAGGSLRLSCAASGFIYGGNPRGWYRQAPGKERELVAANRSGGSTYYADSVKGRFTISRDNAKNTVYLQMNILKPEDTAVYYCAVRLRYAYRARGNYWGQGTQVTVSS”, which “polyreactivity (PSR sort gate)” value is on record?
**A.** Its value is “low polyreactivity”.

**Q.** For “QVQLVESGGGLVQAGGSLRLSCAASGFIYKFYAMGWYRQEPGKVRELVAAISDSGGSTYYADSVKGRFTISRDNAKNTVYLQMNSLKPEDTAVYYCNADWSWNNYYDFDYWGLGTQVTVSS”, which “polyreactivity (PSR sort gate)” value is on record?
**A.** The value was “low polyreactivity”.

**Q.** With “QVQLVESGGGLVQAGGSLRLSCAASGFIYSNNAMGWYRQAPGKERELVAAISASGSSTYYADSVKGRFTISRDNAKNTVYLQMNSLKPEDTAVYYCAAKSRTYQSYYYWGQGTQVTVSS” as the sequence, how does the “polyreactivity (PSR sort gate)” value read?
**A.** The value was “high polyreactivity”.

**Q.** For “QVQLVESGGGLVQAGGSLRLSCAASGFIYSRYAMGWYRQAPRKEMDFFAAISRNGGSTYYADSVKGRITISRDNAKNTVYLQMNSLKPDDTAVYYCIAPYFVTSTYANTLGFDYWGQGTQVTVSS”, which “polyreactivity (PSR sort gate)” value is on record?
**A.** Its value is “high polyreactivity”.

**Q.** With “QVQLVESGGGLVQAGGSLRLSCAASGFMFSRYAMGWYRQAAGTERELVAAITSSGGRTYYADSVKGRFTISRDNAKNTVYLQMTSLKPEDTAVYYCNADLGSWYTWFDYWGQGTQVTVSS” as the sequence, how does the “polyreactivity (PSR sort gate)” value read?
**A.** Its value is “high polyreactivity”.

**Q.** With “QVQLVESGGGLVQAGGSLRLSCAASGFNFPVNAMGWYRQAPGTERELVASITRSGGRTYYADSVKGRLTISRDNAKNTVYLQMNSLKPEDTAVYYCAARYLQEYVYEYDYWGQGTQVTVSS” as the sequence, how does the “polyreactivity (PSR sort gate)” value read?
**A.** Its value is “high polyreactivity”.

**Q.** With “QVQLVESGGGLVQAGGSLRLSCAASGFNFRANGMGWYRQAPGKERELVATITSGGTTNYADSVKGRFTITRDNAKNTVYLQMNSLKPEDTAVYYCAKRFVQAYFRLYDYWGQGTQVNVSS” as the sequence, how does the “polyreactivity (PSR sort gate)” value read?
**A.** Its value is “low polyreactivity”.

**Q.** Which “polyreactivity (PSR sort gate)” value does the source give for “QVQLVESGGGLVQAGGSLRLSCAASGFNFSYYAMGWYRQAPGKERELVAAINSGGVRTYYADSVKGRFTISRDNAKNTVYLQMNSLKPEDTAVYYCAARRHDSRYQYDYWGQGTQVTVSS” here?
**A.** The value was “high polyreactivity”.

**Q.** Which “polyreactivity (PSR sort gate)” value does the source give for “QVQLVESGGGLVQAGGSLRLSCAASGFNFSYYVMGWSRQAPGKERELVAAITKSGGSTYYADSVKGRFTISRDNAKNTVYLQMNSLKPEDTAVYYCAAVRGYRGYDYWGQGTQVTVSS” here?
**A.** The value was “high polyreactivity”.

**Q.** For “QVQLVESGGGLVQAGGSLRLSCAASGFNFTAYAMGWYRQAPGKERELVAAISSGGSTNYADSVKGRFTISRDNAKNSVYLQMNSLKPEDTAVYYCAALLRGIEYDYWGQGTQVTVSS”, which “polyreactivity (PSR sort gate)” value is on record?
**A.** Its value is “high polyreactivity”.

Reference: the nanobody polyreactivity screen of Harvey et al. (2022)
